Test results published in patent US20090191623A1.

Target: azurin from Pseudomonas aeruginosa (Pseudomonas aeruginosa) (UniProt P00282)
Experiment: SPR equilibrium titration, azurin immobilised on CM5

Sequence of azurin from Pseudomonas aeruginosa (Pseudomonas aeruginosa) (P00282 21-148 limits assumed): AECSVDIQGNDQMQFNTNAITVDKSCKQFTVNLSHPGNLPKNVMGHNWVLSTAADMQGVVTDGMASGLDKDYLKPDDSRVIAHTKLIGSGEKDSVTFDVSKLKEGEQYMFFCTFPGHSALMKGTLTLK

NCAM (from UniProt P13591 20-718) (receptor)
Kd: 20 nM
